Test results as given in patent US20140377288A1 (University of Texas, published 2014).

Biological target: T1, GST-hEphA5 (1-72 aa) (human, UniProt P54756 304-375)
T1 construct: also called first 72 amino acids of the region 304-467 of the hEphA5 protein fused to GST; not shown: Glutathione S-transferase (GST) fusion partner
T1 sequence: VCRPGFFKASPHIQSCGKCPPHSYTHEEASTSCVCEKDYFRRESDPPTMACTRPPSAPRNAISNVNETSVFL
Experiment: ELISA with decreasing amount of 11C12 on GST fusion proteins
Method: FIG. 10: Further 11C12 epitope mapping on human EphA5. ELISA assays were performed with decreasing amount of 11C12 antibody in the presence of various portions of human EphA5 fused to GST. GST fusion proteins included EphA5 sequence from the regions corresponding to amino acids 304-467 (SEQ ID NO:3) and are numbered relative to this region. GST fusion proteins included GST-hEphA5 (1-24 aa) (SEQ ID NO:4); GST-hEphA5 (1-48 aa) (SEQ ID NO:5); GST-hEphA5 (1-72 aa) (SEQ ID NO:6); GST-hEphA5 (1-95 aa) (SEQ ID NO:7); GST-hEphA5 (1-120 aa) (SEQ ID NO:8); GST-hEphA5 (1-144 aa) (SEQ ID NO:9); and GST-hEphA5 (1-164 aa) (SEQ ID NO:10).
Epitope mapping was performed with protein fragments of human EphA5. […] This region is provided as SEQ ID NO:3. Further epitope mapping was performed by ELISA using fusion proteins including EphA5 sequences within the 304-467 region (FIG. 10).

B1: 11C12 monoclonal anti-EphA5 antibody (antibody, mouse IgG1, V domains shown)
VH: EVTLKESGGGLVQPGGSRKLSCAASGFTFSTFGIHWVRQAPEKGLEWVAYISGASTTIYYADTVKGRFTISRDNPKNTLFLQMTSLRSEDTAMYYCARYGTSFPYGLDYWGQGTSVTVSS
VL: DIVMTQSPGSLAVSLGQRATISCKASQSVDYDGDSYMNWYQQKPGQPPKLLIYGASNLESGIPARFSGSGSGTDFTLNIHPVEEEDAASYYCQQSNEDPFTFGSGTKLEIK
notes: Murine IgG1 monoclonal antibody from a hybridoma; also called monoclonal antibody 11C12; 11C12 antibody
- binding result: binds
